Reference: patent US20120073987A1, “ELECT[…] AND APPARATUS OF IDENTIFYING THE PRESENCE OF A TARGET” (priority 2009, published 2012)

Key:
[1] = target: T1, HIV-1 reverse transcriptase (Human immunodeficiency virus type 1 group M subtype B, UniProt P04585); test: Cyclic voltammetry detection of HIV-1 RT binding on peptide-RT-modified Thc-Fc Au microelectrodes
T1 construct: HIV-1 reverse transcriptase (200 U, T3610Y, RT) was purchased from GE Healthcare; purchased GE Healthcare T3610Y
Method: (§1) Au microelectrodes were incubated in 1 mM ethanolic solution of Thc-Fc overnight (˜15 h). The electrodes were rinsed with ethanol and Millipore water (18.2 MΩ.cm). This layer was terminated by the amino-reactive carboxyl moieties that allowed the attachment of the peptides. The carboxyl groups were activated with 2 mM EDC and 5 mM NHS in 50 mM phosphate buffer solution (pH 7.4) for 2 h. The N-terminus of the peptides was attached to the activated carboxyl groups of Thc-Fc to give the final electrode interface. The peptides (1 mM) were incubated with the activated electrodes in 50 mM phosphate buffer solution (pH 7.4) for 2 h on a block-shaker at room temperature. Thus, the peptides were conjugated with the Fc compounds on the surface. The remaining active-esters were quenched by incubating the peptide-modified electrodes in 100 mM ethanolamine solution for 1 h on a block-shaker at room temperature. The peptide-modified electrodes were then incubated in 1 mM hexanethiol solution for 5 min to produce a diluted film and to back-fill the empty spots on the electrode surface. Finally, the electrodes were rinsed with ethanol and Millipore water to give the peptide-modified sensor surfaces. […]

HIV-1 integrase = target: T2, HIV-1 integrase (Human immunodeficiency virus type 1 group M subtype B, UniProt P04585); test: Cyclic voltammetry detection of HIV-1 IN binding on peptide-IN-modified Thc-Fc Au microelectrodes
T2 construct: HIV integrase (100 μg, HIV-122, IN) was purchased from ProspecBio (USA); purchased ProspecBio HIV-122
Method: as §1

[2] = 100 nM protein solution, n=3 electrodes, FIG. 7

VEAIIRILQQLLFIH [peptide-RT, purchased peptide ligand for HIV-1 RT, immobilised on ferrocene-modified gold electrode]
electrochemical response to exposure to HIV-1 RT (selectivity) [1, 2]: responded to the exposure of HIV-1 RT
detection limit for HIV-1 RT ([1]; estimated from 3(Sb/m), CV at 100 mV s^-1 in 2 M NaClO4, 1 h incubation in RT assay buffer pH 7.2): 20 nM

YQLLIRMIYKNI [peptide-IN, purchased peptide ligand for HIV-1 IN, immobilised on ferrocene-modified gold electrode]
electrochemical response to exposure to HIV-1 IN (selectivity) (HIV-1 integrase; [2]): responded to the exposure of HIV-1 IN
detection limit for HIV-1 IN (HIV-1 integrase; CV at 100 mV s^-1 in 2 M NaClO4, IN assay buffer pH 7.5): 20 nM
